Experimental data from article doi:10.1101/2024.06.01.596940 (bioRxiv, 2024).

Legend:
[1] = molecular target: T1, mouse GPR182 (untagged), stably expressed on HEK293T cells (mouse, UniProt P43142 1-398); test: flow cytometry on cells
T1 sequence: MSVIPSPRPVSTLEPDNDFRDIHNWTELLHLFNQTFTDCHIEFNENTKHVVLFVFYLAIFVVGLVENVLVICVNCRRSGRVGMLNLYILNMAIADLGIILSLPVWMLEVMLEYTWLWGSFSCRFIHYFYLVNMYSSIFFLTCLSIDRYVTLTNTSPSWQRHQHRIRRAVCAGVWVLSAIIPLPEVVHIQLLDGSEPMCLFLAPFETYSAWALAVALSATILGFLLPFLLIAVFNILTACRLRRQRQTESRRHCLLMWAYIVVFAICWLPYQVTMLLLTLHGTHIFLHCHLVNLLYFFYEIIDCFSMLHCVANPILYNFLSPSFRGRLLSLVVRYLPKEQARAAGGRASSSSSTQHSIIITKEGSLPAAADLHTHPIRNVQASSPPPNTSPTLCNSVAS

[2] = molecular target: human GPR182 (untagged), stably expressed on HEK293T cells (human, UniProt O15218 1-404); test: flow cytometry on cells
Chain of human GPR182 (untagged), stably expressed on HEK293T cells (O15218 whole entry): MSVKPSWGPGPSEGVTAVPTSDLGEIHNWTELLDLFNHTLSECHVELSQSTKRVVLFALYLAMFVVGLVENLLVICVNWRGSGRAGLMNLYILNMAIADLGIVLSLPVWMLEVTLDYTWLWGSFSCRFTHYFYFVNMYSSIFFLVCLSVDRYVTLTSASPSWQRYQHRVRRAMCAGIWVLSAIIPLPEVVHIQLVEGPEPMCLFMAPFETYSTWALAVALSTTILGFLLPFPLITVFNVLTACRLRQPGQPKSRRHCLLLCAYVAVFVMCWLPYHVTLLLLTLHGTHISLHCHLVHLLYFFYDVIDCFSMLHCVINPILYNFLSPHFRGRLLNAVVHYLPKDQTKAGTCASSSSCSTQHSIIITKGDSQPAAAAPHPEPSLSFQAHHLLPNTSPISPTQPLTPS

Row | Binder | pIC50 [1] | pIC50 [2]
1 | mouse GPR15L (ligand) RRHPAKSLKLRRCCHLSPRSKLTTWKGNHTRPCRLCRNKLPVKSWVVPGALPQI | 7.06 | 
2 | human CCL19 (ligand) GTNDAEDCCLSVTQKPIPGYIVRNFHYLLIKDGCRVPAVVFTTLRGRQLCAPPDQPWVERIIQRLQRTSAKMKRRSS |  | 7.21
3 | mouse CXCL17 (ligand) SPNPGVARSHGDQHLAPRRWLLEGGQECECKDWFLQAPKRKATAVLGPPRKQCPCDHVKGREKKNRHQKHHRKSQRPSRACQQFLKRCHLASFALPL | 5.61 | 
4 | human CXCL17 (ligand) SSLNPGVARGHRDRGQASRRWLQEGGQECECKDWFLRAPRRKFMTVSGLPKKQCPCDHFKGNVKKTRHQRHHRKPNKHSRACQQFLKQCQLRSFALPL |  | 7.89
5 | human CCL25 (ligand) QGVFEDCCLAYHYPIGWAVLRRAWTYRIQEVSGSCNLPAAIFYLPKRHRKVCGNPKSREVQRAMKLLDARNKVFAKLHHNTQTFQAGPHAVKKLSSGNSKLSSSKFSNPISSSKRNVSLLISANSGL |  | 7.17
6 | human CXCL13 (ligand) VLEVYYTSLRCRCVQESSVFIPRRFIDRIQILPRGNGCPRKEIIVWKKNKSIVCVDPQAEWIQRMMEVLRKRSSSTLPVPVFKRKIP |  | 7.67
7 | viral macrophage inflammatory protein II (ligand) GDTLGASWHRPDKCCLGYQKRPLPQVLLSSWYPTSQLCSKPGVIFLTKRGRQVCADKSKDWVKKLMQQLPVTAR | 6.13 | 7.87
8 | human GPR15L (ligand) KRRPAKAWSGRRTRLCCHRVPSPNSTNLKGHHVRLCKPCKLEPEPRLWVVPGALPQV |  | 8
